Data taken from patent US20080207449A1 (CROPDESIGN N V, published 2008).

Experiments:
[1] = target: T1, pGBTE2Fa226-356: GAL4 DNA-binding domain fusion of AtE2Fa amino acids 226-356 (Arabidopsis); experiment: yeast two-hybrid, growth on His- minimal medium; legend: +, positive interaction
T1 construct: also called E2F5 dimerisation domain; E2Fa (=E2F5) dimerization domain
Description: (§1) Different combinations between bait (pGBTE2Fa226-356, pGBTE2Fb-Rb, or pGBTE2Fb 1-127, SEQ ID NO:207) and prey constructs were transformed into yeast cells and assayed for their ability to grow on His⁻ minimal media after 3 days of incubation at 30° C. Bait plasmids co-transformed with empty pAD-GAL424 and prey plasmids co-transformed with empty pGBT9 were assessed along as controls for the specificity of the interaction.
(§2) Different combinations between AtE2Fs bait and AtDPs prey constructs were tested for growth on His minimal media. −, no interaction; +, positive interaction; NT, not tested.

[2] = target: T2, pGBTE2Fb-Rb: GAL4 DNA-binding domain fusion of AtE2Fb amino acids 1-385 (lacking the Rb-binding domain) (Arabidopsis); experiment: as above
T2 construct: also called E2F3 N-terminal; E2Fb (=E2F3) N-terminal domain
Description: as §1, §2

[3] = target: T3, empty pGBT9 (GAL4 DNA-binding domain alone) (UniProt P04386 1-147); experiment: yeast two-hybrid, growth on His- minimal medium; empty bait vector control; legend: -, no interaction
T3 construct: empty bait vector, control for specificity; also called pBGT9
Description: as §1, §2

[4] = target: T1, pGBTE2Fa226-356: GAL4 DNA-binding …; experiment: yeast two-hybrid, growth on His- minimal medium; legend: -, no interaction
[5] = target: T2, pGBTE2Fb-Rb: GAL4 DNA-binding domain …; experiment: as above
[6] = target: T4, pGBT DPa 1-292: GAL4 DNA-binding domain fusion of AtDPa 1-292 (Arabidopsis thaliana); experiment: as above
T4 construct: its construction is not described

[7] = target: T5, HA-tagged wild-type AtE2Fb, in vitro translated (Arabidopsis, UniProt Q9FV71 1-469); experiment: co-immunoprecipitation (anti-c-myc) of in vitro co-translated tagged proteins, SDS-PAGE autoradiography
T5 construct: wild-type (whole) protein; also called HA-AtE2Fb; E2F3
Description: In vitro transcription and translation experiments were performed using the TNT T7-coupled wheat germ extract kit (Promega) primed with appropriate plasmids for 90 min at 30° C. For immunoprecipitation, 10 μl of the total in vitro translated extract (50 μl) was diluted at 1:5 in Nonidet P40 buffer (50 mM Tris, pH 7.4, 150 mM NaCl, 1% Nonidet P40, 1 mM phenylmethylsulfonyl fluoride, 10 μg/ml leupeptin/aprotinin/pepstatin) and incubated for 2 h at 4° C. with anti-c-myc (9E10; BabCo) or anti-HA (16B12; BabCo) antibodies. Protein-A-Sepharose (40 μl 25% (v/v)) was added and incubated for 1 h at 4° C., then the beads were washed four times with Nonidet P40 buffer. Immune complexes were eluted with 10 μl […] sodium dodecyl sulfate (SDS) sample buffer and analyzed by 10% or 15% SDS-PAGE and by autoradiography.
Similar results were obtained by two-hybrid analysis (see Table 5 of Example 12). To test whether the structural requirements for heterodimerization of the AtDPs were similar to those of their animal homologs, several deletion mutants of AtDPa and AtDPb were constructed (for a schematic illustration, see FIGS. 52 and 53), tagged with the c-myc epitope (FIGS. 54 and 55, panels A). The interactions between the mutant AtDPs and AtE2Fb were analyzed in immunoprecipitation experiments with the specific anti-HA or anti-c-myc antibodies ([…], panels B and C, respectively). […]

T5 sequence (Q9FV71 1-469, tags or fused parts left off): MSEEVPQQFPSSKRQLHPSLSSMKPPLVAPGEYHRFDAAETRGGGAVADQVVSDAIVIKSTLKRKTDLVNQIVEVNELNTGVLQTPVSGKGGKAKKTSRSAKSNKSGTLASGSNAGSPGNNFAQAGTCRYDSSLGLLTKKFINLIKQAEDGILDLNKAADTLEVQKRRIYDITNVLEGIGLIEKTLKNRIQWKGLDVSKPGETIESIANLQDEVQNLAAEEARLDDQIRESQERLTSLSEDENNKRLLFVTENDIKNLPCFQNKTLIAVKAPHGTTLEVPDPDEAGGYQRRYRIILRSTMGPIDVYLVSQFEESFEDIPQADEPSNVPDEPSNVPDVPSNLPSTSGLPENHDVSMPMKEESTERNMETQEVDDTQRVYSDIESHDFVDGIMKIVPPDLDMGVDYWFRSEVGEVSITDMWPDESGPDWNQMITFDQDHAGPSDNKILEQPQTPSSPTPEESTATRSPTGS

Binder	binding result [1]	binding result [2]	binding result [3]	binding result [4]	binding result [5]	other results
GAL4 transactivation domain fusion of AtDPa 42-292 (prey in pAD-GAL424) (other, not shown: large carriers) EKKGQSRTSGGGLRQFSVMVCQKLEAKKITTYKEVADEIISDFATIKQNAEKPLNENEYNEKNIRRRVYDALNVFMALDIIARDKKEIRWKGLPITCKKDVEEVKMDRNKVMSSVQKKAAFLKELREKVSSLESLMSRNQEMVVKTQGPAEGFTLPFILLETNPHAVVEIEISEDMQLVHLDFNSTPFSVHDDAYILKLMQEQKQEQNRVSSSSSTHHQSQHSSAHSSSSSCIASGTSGPVCWNSGSIDTR	binds	binds	–	–	–	–
GAL4 transactivation domain fusion of AtDPa 121-292 (prey in pAD-GAL424) (other, not shown: large carriers) IIARDKKEIRWKGLPITCKKDVEEVKMDRNKVMSSVQKKAAFLKELREKVSSLESLMSRNQEMVVKTQGPAEGFTLPFILLETNPHAVVEIEISEDMQLVHLDFNSTPFSVHDDAYILKLMQEQKQEQNRVSSSSSTHHQSQHSSAHSSSSSCIASGTSGPVCWNSGSIDTR	binds	binds	–	–	–	–
GAL4 transactivation domain fusion of AtDPa 121-213 (prey in pAD-GAL424) (other, not shown: large carriers) IIARDKKEIRWKGLPITCKKDVEEVKMDRNKVMSSVQKKAAFLKELREKVSSLESLMSRNQEMVVKTQGPAEGFTLPFILLETNPHAVVEIEI	–	–	no binding	no binding	no binding	–
GAL4 transactivation domain fusion of AtDPb 182-263 (prey in pAD-GAL424) (other, not shown: large carriers) GLPRTSLSDIEELKNERLSLRNRIEKKTAYSQELEEQYVGLQNLIQRNEHLYSSGNAPSGGVALPFILVQTRPHATVEVEI	binds	binds	no binding	–	–	–
GAL4 transactivation domain fusion of AtDPa 1-292 (prey in pAD-GAL424) (other, not shown: large carriers, also called full-length AtDPa prey) MSMEMELFVTPEKQRQHPSVSVEKTPVRRKLIVDDDSEIGSEKKGQSRTSGGGLRQFSVMVCQKLEAKKITTYKEVADEIISDFATIKQNAEKPLNENEYNEKNIRRRVYDALNVFMALDIIARDKKEIRWKGLPITCKKDVEEVKMDRNKVMSSVQKKAAFLKELREKVSSLESLMSRNQEMVVKTQGPAEGFTLPFILLETNPHAVVEIEISEDMQLVHLDFNSTPFSVHDDAYILKLMQEQKQEQNRVSSSSSTHHQSQHSSAHSSSSSCIASGTSGPVCWNSGSIDTR	–	binds	–	–	–	binding result [6]: no binding
GAL4 transactivation domain fusion of AtDPb 1-193 (prey in pAD-GAL424) (other, not shown: large carriers) MTTTGSNSNHNHHESNNNNNNPSTRSWGTAVSGQSVSTSGSMGSPSSRSEQTITVVTSTSDTTFQRLNNLDIQGDDAGSQGASGVKKKKRGQRAAGPDKTGRGLRQFSMKVCEKVESKGRTTYNEVADELVAEFALPNNDGTSPDQQQYDEKNIRRRVYDALNVLMAMDIISKDKKEIQWRGLPRTSLSDIEE	–	–	–	no binding	no binding	–
GAL4 transactivation domain fusion of AtDPa 1-142 (prey in pAD-GAL424) (other, not shown: large carriers) MSMEMELFVTPEKQRQHPSVSVEKTPVRRKLIVDDDSEIGSEKKGQSRTSGGGLRQFSVMVCQKLEAKKITTYKEVADEIISDFATIKQNAEKPLNENEYNEKNIRRRVYDALNVFMALDIIARDKKEIRWKGLPITCKKDV	–	–	no binding	no binding	no binding	–
GAL4 transactivation domain fusion of AtDPb 182-385 (prey in pAD-GAL424) (other, not shown: large carriers) GLPRTSLSDIEELKNERLSLRNRIEKKTAYSQELEEQYVGLQNLIQRNEHLYSSGNAPSGGVALPFILVQTRPHATVEVEISEDMQLVHFDFNSTPFELHDDNFVLKTMKFCDQPPQQPNGRNNSQLVCHNFTPENPNKGPSTGPTPQLDMYETHLQSQQHQQHSQLQIIPMPETNNVTSSADTAPVKSPSLPGIMNSSMKPEN	binds	binds	–	–	–	–
GAL4 transactivation domain fusion of AtDPa 42-142 (prey in pAD-GAL424) (other, not shown: large carriers) EKKGQSRTSGGGLRQFSVMVCQKLEAKKITTYKEVADEIISDFATIKQNAEKPLNENEYNEKNIRRRVYDALNVFMALDIIARDKKEIRWKGLPITCKKDV	–	–	no binding	no binding	no binding	–
c-myc-tagged AtDPa 1-142, in vitro translated (other, also called c-myc-AtDPa 1-142) EQKLISEEDLEQKLISEEDLMSMEMELFVTPEKQRQHPSVSVEKTPVRRKLIVDDDSEIGSEKKGQSRTSGGGLRQFSVMVCQKLEAKKITTYKEVADEIISDFATIKQNAEKPLNENEYNEKNIRRRVYDALNVFMALDIIARDKKEIRWKGLPITCKKDV	–	–	–	–	–	binding result [7]: no binding
c-myc-tagged AtDPb 1-193, in vitro translated (other, also called c-myc-AtDPb 1-193) EQKLISEEDLEQKLISEEDLMTTTGSNSNHNHHESNNNNNNPSTRSWGTAVSGQSVSTSGSMGSPSSRSEQTITVVTSTSDTTFQRLNNLDIQGDDAGSQGASGVKKKKRGQRAAGPDKTGRGLRQFSMKVCEKVESKGRTTYNEVADELVAEFALPNNDGTSPDQQQYDEKNIRRRVYDALNVLMAMDIISKDKKEIQWRGLPRTSLSDIEE	–	–	–	–	–	binding result [7]: no binding
GAL4 transactivation domain fusion of AtDPa 172-292 (prey in pAD-GAL424) (other, not shown: large carriers) SLESLMSRNQEMVVKTQGPAEGFTLPFILLETNPHAVVEIEISEDMQLVHLDFNSTPFSVHDDAYILKLMQEQKQEQNRVSSSSSTHHQSQHSSAHSSSSSCIASGTSGPVCWNSGSIDTR	–	–	no binding	no binding	no binding	–
